B1: RVRb: Rev-Erb β (NR1D2, alternative name RVR), cDNA driver (protein, UniProt Q14995 1-579, looked up)
Nuclear receptor subfamily 1 …: MEVNAGGVIAYISSSSSASSPASCHSEGSENSFQSSSSSVPSSPNSSNSDTNGNPKNGDLANIEGILKNDRIDCSMKTSKSSAPGMTKSHSGVTKFSGMVLLCKVCGDVASGFHYGVHACEGCKGFFRRSIQQNIQYKKCLKNENCSIMRMNRNRCQQCRFKKCLSVGMSRDAVRFGRIPKREKQRMLIEMQSAMKTMMNSQFSGHLQNDTLVEHHEQTALPAQEQLRPKPQLEQENIKSSSPPSSDFAKEEVIGMVTRAHKDTFMYNQEQQENSAESMQPQRGERIPKNMEQYNLNHDHCGNGLSSHFPCSESQQHLNGQFKGRNIMHYPNGHAICIANGHCMNFSNAYTQRVCDRVPIDGFSQNENKNSYLCNTGGRMHLVCPMSKSPYVDPHKSGHEIWEEFSMSFTPAVKEVVEFAKRIPGFRDLSQHDQVNLLKAGTFEVLMVRFASLFDAKERTVTFLSGKKYSVDDLHSMGAGDLLNSMFEFSEKLNALQLSDEEMSLFTAVVLVSADRSGIENVNSVEALQETLIRALRTLIMKNHPNEASIFTKLLLKLPDLRSLNNMHSEELLAFKVHP
B2: RORg: RAR-related Orphan Receptor γ (NR1F3), cDNA driver (protein, UniProt P51449 1-518, looked up)
Nuclear receptor ROR-gamma: MDRAPQRQHRASRELLAAKKTHTSQIEVIPCKICGDKSSGIHYGVITCEGCKGFFRRSQRCNAAYSCTRQQNCPIDRTSRNRCQHCRLQKCLALGMSRDAVKFGRMSKKQRDSLHAEVQKQLQQRQQQQQEPVVKTPPAGAQGADTLTYTLGLPDGQLPLGSSPDLPEASACPPGLLKASGSGPSYSNNLAKAGLNGASCHLEYSPERGKAEGRESFYSTGSQLTPDRCGLRFEEHRHPGLGELGQGPDSYGSPSFRSTPEAPYASLTEIEHLVQSVCKSYRETCQLRLEDLLRQRSNIFSREEVTGYQRKSMWEMWERCAHHLTEAIQYVVEFAKRLSGFMELCQNDQIVLLKAGAMEVVLVRMCRAYNADNRTVFFEGKYGGMELFRALGCSELISSIFDFSHSLSALHFSEDEIALYTALVLINAHRPGLQEKRKVEQLQYNLELAFHHHLCKTHRQSILAKLPPKGKLRSLCSQHVERLQIFQHLHPIVVQAAFPPLYKELFSTETESPVGLSK
B3: RVRa: Rev-Erb α (NR1D1), cDNA driver (protein, UniProt P20393 1-614, looked up)
Nuclear receptor subfamily 1 …: MTTLDSNNNTGGVITYIGSSGSSPSRTSPESLYSDNSNGSFQSLTQGCPTYFPPSPTGSLTQDPARSFGSIPPSLSDDGSPSSSSSSSSSSSSFYNGSPPGSLQVAMEDSSRVSPSKSTSNITKLNGMVLLCKVCGDVASGFHYGVHACEGCKGFFRRSIQQNIQYKRCLKNENCSIVRINRNRCQQCRFKKCLSVGMSRDAVRFGRIPKREKQRMLAEMQSAMNLANNQLSSQCPLETSPTQHPTPGPMGPSPPPAPVPSPLVGFSQFPQQLTPPRSPSPEPTVEDVISQVARAHREIFTYAHDKLGSSPGNFNANHASGSPPATTPHRWENQGCPPAPNDNNTLAAQRHNEALNGLRQAPSSYPPTWPPGPAHHSCHQSNSNGHRLCPTHVYAAPEGKAPANSPRQGNSKNVLLACPMNMYPHGRSGRTVQEIWEDFSMSFTPAVREVVEFAKHIPGFRDLSQHDQVTLLKAGTFEVLMVRFASLFNVKDQTVMFLSRTTYSLQELGAMGMGDLLSAMFDFSEKLNSLALTEEELGLFTAVVLVSADRSGMENSASVEQLQETLLRALRALVLKNRPLETSRFTKLLLKLPDLRTLNNMHSEKLLSFRVDAQ
B4: RARa: Retinoic acid receptor α (NR1B1), nuclear hormone receptor cDNA driver (protein, UniProt P10276 1-462, looked up)
Retinoic acid receptor alpha: MASNSSSCPTPGGGHLNGYPVPPYAFFFPPMLGGLSPPGALTTLQHQLPVSGYSTPSPATIETQSSSSEEIVPSPPSPPPLPRIYKPCFVCQDKSSGYHYGVSACEGCKGFFRRSIQKNMVYTCHRDKNCIINKVTRNRCQYCRLQKCFEVGMSKESVRNDRNKKKKEVPKPECSESYTLTPEVGELIEKVRKAHQETFPALCQLGKYTTNNSSEQRVSLDIDLWDKFSELSTKCIIKTVEFAKQLPGFTTLTIADQITLLKAACLDILILRICTRYTPEQDTMTFSDGLTLNRTQMHNAGFGPLTDLVFAFANQLLPLEMDDAETGLLSAICLICGDRQDLEQPDRVDMLQEPLLEALKVYVRKRRPSRPHMFPKMLMKITDLRSISAKGAERVITLKMEIPGSMPPLIQEMLENSEGLDTLSGQPGGGGRDGGGLAPPPGSCSPSLSPSSNRSSPATHSP

tested on: hCAR promoter; assay: NHR-promoter luciferase screen, hCAR promoter; assay type: cell-based, human; conditions: hCAR promoter-luciferase, CV-1 cells, NHR +/- ligand, control = 1.00
Description: (§1) The use, feasibility, and reproducibility of the functional NHR-promoter screen in a 48-well format have been tested validated. Briefly, there were co-expressed 50 ng of each NHR/NHR homodimer or NHR/RXR heterodimer with 100 ng promoter/luciferase construct and 50 ng of LacZ (as a control for transfection efficiency) in CV-1 cells using Fugene HD (Roche) as a transfection reagent (alternatively or additionally, a CMV-YFP construct can be used as a transfection control). Each of the nuclear hormone receptors that were used in these experiments was cloned into a pcDNA3.1 vector and comprised a C-terminally linked V5H6 tag. Twenty-four hours after transfection, appropriate ligands were added, where applicable, (see Table 5 for various ligands and concentrations and after 48 hrs, samples were assayed for luciferase and LacZ activity. To measure for luciferase activity 15 ul of sample was added to 30 ul of luciferase buffer (20 mM tricine, 1.07 mM MgCarbonate, 2.67 mM MgSulfate, 0.1 mM Naz-EDTA, 5 mM DTT, 5 mM ATP, 0.15 mg/ml CoA, 0.5 mM Luciferin), mixed briefly, and run in a Perkin Elmer Victor 5 luminometer. Thus, the functional NHR-promoter screen was used to observe the transcriptional activity of 29 promoters from various physiological pathways including inflammation, lipid and sugar metabolism, cholesterol transport, xenobiotic metabolism, and circadian rhythm.
(§2) The promoters that facilitate transcription of the indicated gene products that were tested using the protocols described herein are listed in the first row of the table. The nuclear hormone receptors and, where applicable, ligands that were assayed for their transcriptional effects on the promoters are listed in the first column of the table. The data represent the luciferase activity of each sample normalized to both the lacZ activity of that sample and to a control, e.g., no NHR or ligand, as customary in the art. As described previously, these normalizations allow the transcriptional activity of each reporter cell to be compared to other samples.
(§3) Tables 7-40 show the transcriptional effects of the hormone receptors, and, where applicable, ligands (orphan receptors are screened without ligand), on each individual promoter. […] The control data of each table are shown in their last rows.

Molecule	luciferase activity normalized to lacZ activity and to a control, hCAR
B1	1.13
B2	1.22
B3	1.05
B4	1.05

same assay, conditions: hCAR promoter; HR/ligand component

Molecule	Luc. act., normalized to lacZ	Normalized Luc. act., normalized to control
B1	35.7	1.1
B2	38.6	1.2
B3	33.3	1.1
B4	33.2	1.1

tested on: hPOMC promoter; assay: NHR-promoter luciferase screen, hPOMC promoter; assay type: cell-based, human; conditions: hPOMC promoter; HR/ligand component
Description: as §1, §2, §3

Molecule	Luc. act., normalized to lacZ	Normalized Luc. act., normalized to control
B1	2.8	0.7
B2	2.1	0.5
B3	2.3	0.5
B4	3.2	0.7

same assay, conditions: transcription factor +/- ligand; control = 1.00

Molecule	hPOMC promoter reporter activity
B1	0.66
B2	0.50
B3	0.53
B4	0.74

tested on: mPgc1b promoter; assay: NHR-promoter luciferase screen, mPgc1b promoter; assay type: cell-based, mouse; conditions: PGC1b promoter reporter; co-transfected HR, without or with its ligand
Description: Briefly, there were co-expressed 50 ng of each NHR/NHR homodimer or NHR/RXR heterodimer with 100 ng promoter/luciferase construct and 50 ng of LacZ (as a control for transfection efficiency) in CV-1 cells using Fugene HD (Roche) as a transfection reagent (alternatively or additionally, a CMV-YFP construct can be used as a transfection control). Each of the nuclear hormone receptors that were used in these experiments was cloned into a pcDNA3.1 vector and comprised a C-terminally linked V5H6 tag.
as §2, §3

Molecule	Luc. act., normalized to lacZ
B1	9.3
B2	15.9
B3	8.8
B4	12.69

same assay, conditions: PGC1b promoter reporter; co-transfected HR, without or with its ligand; relative to control

Molecule	Normalized Luc. act., normalized to control
B1	0.8
B2	1.3
B3	0.7
B4	1.1

same assay, conditions: mPgc1b promoter-luciferase, CV-1 cells, NHR +/- ligand, control = 1.00

Molecule	luciferase activity normalized to lacZ activity and to a control, mPgc1b
B1	0.78
B2	1.34
B3	0.74
B4	1.07

tested on: mUCP3 promoter; assay: NHR-promoter luciferase screen, mUCP3 promoter; assay type: cell-based, mouse; conditions: mUCP3 promoter reporter; HR without or with its ligand; relative to control
Description: as §1, §2, §3

Molecule	Normalized Luc. act., normalized to control
B1	1.9
B2	2.4
B3	1.2
B4	1.8

same assay, conditions: mUCP3 promoter reporter; hormone receptor (HR) without or with its ligand

Molecule	Luc. act., normalized to lacZ
B1	1.3
B2	1.6
B3	0.8
B4	1.2

same assay, conditions: transcription factor +/- ligand; control = 1.00

Molecule	mUCP3 promoter reporter activity
B1	1.91
B2	2.38
B3	1.24
B4	1.76

tested on: mUCP1 promoter; assay: NHR-promoter luciferase screen, mUCP1 promoter; assay type: cell-based, mouse; conditions: mUCP1 promoter reporter; co-transfected HR, with or without its ligand
Description: as §1, §2, §3

Molecule	Luc. act., normalized to lacZ
B1	4.3
B2	2.8
B3	3.8
B4	2.8

same assay, conditions: mUCP1 promoter reporter; co-transfected HR, with or without its ligand; relative to control

Molecule	Normalized Luc. act., normalized to control
B1	1.0
B2	0.6
B3	0.8
B4	0.6

same assay, conditions: mUCP! promoter-luciferase, CV-1 cells, NHR +/- ligand, control = 1.00

Molecule	luciferase activity normalized to lacZ activity and to a control, mUCP!
B1	0.96
B2	0.62
B3	0.85
B4	0.63

tested on: MCP-1 promoter; assay: NHR-promoter luciferase screen, MCP-1 promoter; assay type: cell-based; conditions: MCP-1 promoter reporter; HR without or with its ligand; relative to control
Description: as §1, §2, §3

Molecule	Normalized Luc. act., normalized to control
B1	1.6
B2	2.8
B3	1.4
B4	1.7

same assay, conditions: MCP-1 promoter reporter; hormone receptor (HR) without or with its ligand

Molecule	Luc. act., normalized to lacZ
B1	170.4
B2	301.2
B3	149.4
B4	182.3

same assay, conditions: transcription factor +/- ligand; control = 1.00

Molecule	mMCP-1 promoter reporter activity
B1	1.59
B2	2.81
B3	1.40
B4	1.70

Reference: US20110263454A1, “Methods of Identifying Functional Characteristics of Promoters, Transcription Modifying Proteins and Transcription Modulating Agents” (Salk Institute for Biological Studies, priority 2008, published 2011)
